According to publication PMC9841405:
Residue numbers refer to the chain shown, from its start.

T1: AtTCP10-DBD (UniProt O82277 1-87)
T1 sequence: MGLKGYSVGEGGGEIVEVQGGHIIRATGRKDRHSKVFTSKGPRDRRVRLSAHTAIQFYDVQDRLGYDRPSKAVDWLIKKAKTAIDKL

T2: AtTCP10-DBD DRH mutant (UniProt O82277 1-87, D31A;R32A;H33A)
T2 sequence: T1 sequence with D31A, R32A, H33A

T3: AtTCP10-DBD DRH RR mutant (UniProt O82277 1-87, D31A;R32A;H33A;R46A;R48A)
T3 sequence: T1 sequence with D31A, R32A, H33A, R46A, R48A

T4: AtTCP10-DBD RR mutant (UniProt O82277 1-87, R46A;R48A)
T4 sequence: T1 sequence with R46A, R48A

B1: two-site class I DNA (dsDNA)
DNA 1: ATGTGGGTCCGTGT
DNA 2: TACACGGACCCACA
B2: three-site class I DNA (dsDNA)
DNA 1: ATGTGGGTCCCACT
DNA 2: TAGTGGGACCCACA
B3: two-site class II DNA (dsDNA)
DNA 1: ATGTGGTCCCGTGT
DNA 2: TACACGGGACCACA
B4: one-site class II DNA (dsDNA)
DNA 1: ATAGAGTCCCGTGT
DNA 2: TACACGGGACTCTA
B5: one-site class I DNA (dsDNA)
DNA 1: ATAGAGGTCCGTGT
DNA 2: TACACGGACCTCTA
B6: three-site class II DNA (dsDNA)
DNA 1: ATGTGGTCCCCACT
DNA 2: TAGTGGGGACCACA

Tests used:
[1] = biological target: T5, AtTCP15-DBD (UniProt Q9C9L2 51-113); assay: ITC
[2] = biological target: T1, AtTCP10-DBD; assay: ITC
[3] = biological target: T2, AtTCP10-DBD DRH mutant; assay: EMSA
[4] = biological target: T5, AtTCP15-DBD; assay: EMSA
[5] = biological target: T3, AtTCP10-DBD DRH RR mutant; assay: ITC
[6] = biological target: T4, AtTCP10-DBD RR mutant; assay: ITC
[7] = biological target: T2, AtTCP10-DBD DRH mutant; assay: ITC

Row | Binder | Kd [1] | Kd [2] | binding result [3] | also measured
1 | B1 | 109 nM | – | – | –
2 | B2 | 38.3 nM | – | – | –
3 | B3 | – | 351 nM | binds | –
4 | B4 | – | 366 nM | binds | –
5 | B5 | – | – | – | binding result [4]: binds
6 | B6 | – | 8.5 nM | – | Kd [5]: 1620 nM; Kd [6]: 1130 nM; Kd [7]: 353 nM
